Experimental data: US20230303660A1 (published 2023)
Where “and” joins values, the source holds several entries; their conditions need not be identical. Equal values may be shown once.

Experiments:
[1] = target: T1, human 4-1BB (human, UniProt Q07011 24-255); assay: cell-based or functional assay
[2] = target: T1, human 4-1BB; assay: flow cytometry; dilution series of HEK293T supernatant on Jurkat TPR cells expressing human 4-1BB
From the text: For testing the resulting supernatants, a Triple parameter reporter cell line (TPR) based on the human Jurkat JE6-1 T cell line was used (Jutz et al., 2016). This cell line harbors fluorescent reporter polypeptides to concomitantly assess the activity of three transcription factors, which play major roles during T cell activation: NF-κB::eCFP; NFAT::eGFP and AP-1::mCherry. The TPR reporter cells were transduced to stably express human 4-1BB. For the binding assays, 1×10⁵ 4-1 BB expressing cells in a volume of 10 μl were incubated with 50 μl of the supernatants containing the products according to Table 1. […] After an incubation time of 30 min at 4° C., the samples are washed in FACS-Buffer (1×PBS, 0.5% FCS, 0.005% NaN₃) and stained with a biotinylated Strep-tag II mAb (GenScript, NJ) via adding 5 μl of a 1:150 dilution to each sample and incubation for 20 min on 4° C. Afterwards, samples were washed again and incubated for another 20 min on 4° C. upon adding 5 μl of a 1:200 dilution of Streptavidin-PE (BD Pharmingen, San Diego, CA) to each sample. At last, samples were washed again and subsequently measured via flow cytometry, which was performed on a FACSCalibur flow cytometer (Becton Dickinson Immunocytometry System, San Jose, CA), using the CellQuest software. Data was analyzed with FlowJo (version 10.0.7, Tree Star, Ashland, OR) and Graphpad Prism (version 6, GraphPad Software, Inc., La Jolla, CA).

[3] = target: murine 4-1BB (murine, UniProt P20334 24-256); assay: cell-based or functional assay
Sequence of murine 4-1BB (P20334 24-256): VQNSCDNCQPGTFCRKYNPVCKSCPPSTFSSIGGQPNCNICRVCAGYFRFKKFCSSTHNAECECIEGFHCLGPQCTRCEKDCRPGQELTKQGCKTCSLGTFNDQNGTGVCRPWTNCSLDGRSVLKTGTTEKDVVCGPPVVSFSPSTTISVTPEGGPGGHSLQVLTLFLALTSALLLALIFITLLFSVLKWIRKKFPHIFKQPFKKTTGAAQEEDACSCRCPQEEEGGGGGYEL

T1 sequence (Q07011 24-255): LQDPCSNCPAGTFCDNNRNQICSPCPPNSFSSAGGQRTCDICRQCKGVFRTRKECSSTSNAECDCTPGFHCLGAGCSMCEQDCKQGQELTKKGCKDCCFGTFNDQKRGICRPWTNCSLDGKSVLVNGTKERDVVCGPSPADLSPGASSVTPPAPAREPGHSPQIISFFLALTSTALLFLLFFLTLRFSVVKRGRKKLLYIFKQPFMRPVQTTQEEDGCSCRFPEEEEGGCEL

Binder	NF-κB activation measured through eCFP expression (fold induction) [1]	supernatant dilution at which binding is still detectable [2]	NF-κB activation measured through eCFP expression (fold induction) [3]
s4-1BBL-TriXVIII^LL (ligand) GSGSNWSHPQFEKGGSGGHHHHHHGGSGGTRSGAGGSGGSSGSDGASGSGVRLWATRQAMLGQVHEVPEGWLIFVAEQEELYVRVQNGFRKVQLEARTPLPRGTDNEGSLDLRQGMFAQLVAQNVLLIDGPLSWYSDPGLAGVSLTGGLSYKEDTKELVVAKAGVYYVFFQLELRRVVAGEGSGSVSLALHLQPLRSAAGAAALALTVDLPPASSEARNSAFGFQGRLLHLSAGQRLGVHLHTEARARHAWQLTQGATVLGLFRVTPEIPAGLPSPRSE	64 final supernatant dilution (1:x) and 8 supernatant dilution (1:x)		
s4-1BBL-TNC (ligand, HEK293T supernatant; The entry may include the CD5 leader; also called comparison 3) GSGSNWSHPQFEKGGSGGHHHHHHGGSGGTRACGCAAAPDIKDLLSRLEELEGLVSSLREQGSLDLRQGMFAQLVAQNVLLIDGPLSWYSDPGLAGVSLTGGLSYKEDTKELVVAKAGVYYVFFQLELRRVVAGEGSGSVSLALHLQPLRSAAGAAALALTVDLPPASSEARNSAFGFQGRLLHLSAGQRLGVHLHTEARARHAWQLTQGATVLGLFRVTPEIPAGLPSPRSE	~50 % of effect lost at a dilution of 1:8	128 supernatant dilution (1:x)	
s4-1BBLsh-TriXVIII (ligand, HEK293T supernatant, used without purification; The entry may include the CD5 leader; also called 54-1BBLsh-TriXVIII; s4-1BBL-short (sh) minimal polypeptide) GSGSNWSHPQFEKGGSGGHHHHHHGGSGGGVRLWATRQAMLGQVHEVPEGWLIFVAEQEELYVRVQNGFRKVQLEARTPLPRGTDNEGSGMFAQLVAQNVLLIDGPLSWYSDPGLAGVSLTGGLSYKEDTKELVVAKAGVYYVFFQLELRRVVAGEGSGSVSLALHLQPLRSAAGAAALALTVDLPPASSEARNSAFGFQGRLLHLSAGQRLGVHLHTEARARHAWQLTQGATVLGLFRVTP		2080 supernatant dilution (1:x)	
s4-1BBL (ligand, HEK293T supernatant; also called soluble 4-1BBL) GSGSNWSHPQFEKGGSGGHHHHHHGGSGGGSLDLRQGMFAQLVAQNVLLIDGPLSWYSDPGLAGVSLTGGLSYKEDTKELVVAKAGVYYVFFQLELRRVVAGEGSGSVSLALHLQPLRSAAGAAALALTVDLPPASSEARNSAFGFQGRLLHLSAGQRLGVHLHTEARARHAWQLTQGATVLGLFRVTPEIPAGLPSPRSE	8 final supernatant dilution (1:x)	1600 supernatant dilution (1:x)	
s4-1BBL-TriXVIII (ligand, HEK293T supernatant; The entry may include the CD5 leader; also called 54-1BBL-TriXVIII; human s4-1BBL-TriXVIII) GSGSNWSHPQFEKGGSGGHHHHHHGGSGGGVRLWATRQAMLGQVHEVPEGWLIFVAEQEELYVRVQNGFRKVQLEARTPLPRGTDNEGSLDLRQGMFAQLVAQNVLLIDGPLSWYSDPGLAGVSLTGGLSYKEDTKELVVAKAGVYYVFFQLELRRVVAGEGSGSVSLALHLQPLRSAAGAAALALTVDLPPASSEARNSAFGFQGRLLHLSAGQRLGVHLHTEARARHAWQLTQGATVLGLFRVTPEIPAGLPSPRSE		4096 supernatant dilution (1:x)	
murine (m)s4-1BBL-TriXVIII (ligand) GVRLWATRQAMLGQVHEVPEGWLIFVAEQEELYVRVQNGFRKVQLEARTPLPRGTDNEGSRTEPRPALTITTSPNLGTRENNADQVTPVSHIGCPNTTQQGSPVFAKLLAKNQASLCNTTLNWHSQDGAGSSYLSQGLRYEEDKKELVVDSPGLYYVFLELKLSPTFTNTGHKVQGWVSLVLQAKPQVDDFDNLALTVELFPCSMENKLVDRSWSQLLLLKAGHRLSVGLRAYLHGAQDAYRDWELSYPNTTSFGLFLVKPDNPWE			15600 final supernatant dilution (1:x) and 500 supernatant dilution (1/x)
Triple-s4-1BBL (ligand, HEK293T supernatant; Single chain carrying three ectodomains; The entry may include the leader) GSGSNWSHPQFEKGGSGGHHHHHHGGSGGGSLDLRQGMFAQLVAQNVLLIDGPLSWYSDPGLAGVSLTGGLSYKEDTKELVVAKAGVYYVFFQLELRRVVAGEGSGSVSLALHLQPLRSAAGAAALALTVDLPPASSEARNSAFGFQGRLLHLSAGQRLGVHLHTEARARHAWQLTQGATVLGLFRVTPEIPAGLPSPRSEGGGGSGGGGSGGGGSLDLRQGMFAQLVAQNVLLIDGPLSWYSDPGLAGVSLTGGLSYKEDTKELVVAKAGVYYVFFQLELRRVVAGEGSGSVSLALHLQPLRSAAGAAALALTVDLPPASSEARNSAFGFQGRLLHLSAGQRLGVHLHTEARARHAWQLTQGATVLGLFRVTPEIPAGLPSPRSEGGGGSGGGGSGGGGSLDLRQGMFAQLVAQNVLLIDGPLSWYSDPGLAGVSLTGGLSYKEDTKELVVAKAGVYYVFFQLELRRVVAGEGSGSVSLALHLQPLRSAAGAAALALTVDLPPASSEARNSAFGFQGRLLHLSAGQRLGVHLHTEARARHAWQLTQGATVLGLFRVTPEIPAGLPSPRSE		4096 supernatant dilution (1:x)	
